Assay results as given in FireProtDB (doi:10.1021/bi301421v).
Values joined by “and” are separate entries in the source; they are usually repeats but may differ in a detail not shown here. Equal values may be shown once.

Settings: Helicobacter pylori (strain ATCC 700392 / 26695); pH 7.2; Thermal; CD; Tris-HCl 20 mM; transition: 2; reversible: yes; whole UniProt chain shown

B1: Arginase wild type, O25949 (protein)
chain: MILVGLEAELGASKRGTDKGVRRLREALSATHGDVIKGMQTITQERCVLYKEFRYAKNFEDYYLFCKENLIPCMKEVFEKKEFPLILSSEHANMFGIFQAFRSVHKDKKIGILYLDAHADIHTAYDSDSKHIHGMPLGMVLNRVRSGFNRMSESEEKAWQKLCSLGLEKGGLEIDPKCLVYFGVRSTEQSERDVIRELQIPLFSVDAIRENMQEVVQKTKESLKAVDIIYLSLDLDIMDGKLFTSTGVRENNGLSFDELKQLLGLLLESFKDRLKAVEVTEYNPTVSIKHNNEEEKQVLEILDLIINSCKIKDKKHSFARSY
In the case of B1, the Tm is reported as 70 °C and 68 °C.
